Substrate: Nc1ncnc2c1ncn2[C@@H]1O[C@H](COP(=O)(O)OP(=O)(O)OP(=O)(O)O)[C@@H](O)[C@H]1O
Assay: purified protein
Format: biochemical, Escherichia coli
Conditions: non-parallel (TTAGGG)4-T15 G4 DNA, 100 nM protein, 1 μM to 2 mM ATP, 50 mM KCl, 3 mM MgCl2, pH 7.5, ~23 °C

B1: UvrD (Escherichia coli K-12) (protein)
chain: MDVSYLLDSLNDKQREAVAAPRSNLLVLAGAGSGKTRVLVHRIAWLMSVENCSPYSIMAVTFTNKAAAEMRHRIGQLMGTSQGGMWVGTFHGLAHRLLRAHHMDANLPQDFQILDSEDQLRLLKRLIKAMNLDEKQWPPRQAMWYINSQKDEGLRPHHIQSYGNPVEQTWQKVYQAYQEACDRAGLVDFAELLLRAHELWLNKPHILQHYRERFTNILVDEFQDTNNIQYAWIRLLAGDTGKVMIVGDDDQSIYGWRGAQVENIQRFLNDFPGAETIRLEQNYRSTSNILSAANALIENNNGRLGKKLWTDGADGEPISLYCAFNELDEARFVVNRIKTWQDNGGALAECAILYRSNAQSRVLEEALLQASMPYRIYGGMRFFERQEIKDALSYLRLIANRNDDAAFERVVNTPTRGIGDRTLDVVRQTSRDRQLTLWQACRELLQEKALAGRAASALQRFMELIDALAQETADMPLHVQTDRVIKDSGLRTMYEQEKGEKGQTRIENLEELVTATRQFSYNEEDEDLMPLQAFLSHAALEAGEGQADTWQDAVQLMTLHSAKGLEFPQVFIVGMEEGMFPSQMSLDEGGRLEEERRLAYVGVTRAMQKLTLTYAETRRLYGKEVYHRPSRFIGELPEECVEEVRLRATVSRPVSHQRMGTPMVENDSGYKLGQRVRHAKFGEGTIVNMEGSGEHSRLQVAFQGQGIKWLVAAYARLESV
notes: expressed in E. coli BL21(DE3) pLysS; Polymin P, ammonium sulfate, heparin and Sephacryl S-300 purification; no tag mentioned
Km: 42.52 ± 13.8 µM

Source: publication PMC7337899, “E. coli Rep helicase and RecA recombinase unwind G4 DNA and are important for resistance to G4-stabilizing ligands” (Nucleic Acids Research, 2020)
